# Source: paper PMC12527216
# Key:
# [1] = target: recombinant soluble CD4 engineered with a deletion in the transmembrane region but retaining the cytoplasmic tail (UniProt P01730); experiment: ELISA; as a1, but HIVBaL treated beforehand with 1% (w/w) (110 mM) L-lactic acid at pH 3.8 for 60 min at 37°C
# [2] = target: recombinant soluble CD4 engineered with a deletion in the transmembrane region but retaining the cytoplasmic tail (UniProt P01730); experiment: ELISA; as a1, but HIVBaL treated beforehand with acidified media at pH 3.8 (HCl adjusted) for 60 min at 37°C
substance,measurement,setting,value
virion-associated trimeric gp120 envelope glycoprotein of HIV-1 BaL (on HIVBaL virions) (natural protein),fold reduction in rCD4 binding relative to untreated HIV-1,[1],2 fold
same,fold reduction in rCD4 binding relative to untreated HIV-1,[2],2 fold
